According to paper PMC9225179, “RNA Polymerase II Transcription in Pneumocystis: TFIIB from Pneumocystis carinii Can Replace the Transcriptional Functions of Fission Yeast Schizosaccharomyces pombe TFIIB In Vivo and In Vitro” (International Journal of Molecular Sciences, 2022):

Biological target: T1, Schizosaccharomyces pombe TFIIB (S. pombe, UniProt O13749 1-340)
T1 construct: General transcription factor TFIIB of S. pombe (sua7), 340 aa as printed; also called SpIIB; fission yeast TFIIB
T1 sequence (looked up): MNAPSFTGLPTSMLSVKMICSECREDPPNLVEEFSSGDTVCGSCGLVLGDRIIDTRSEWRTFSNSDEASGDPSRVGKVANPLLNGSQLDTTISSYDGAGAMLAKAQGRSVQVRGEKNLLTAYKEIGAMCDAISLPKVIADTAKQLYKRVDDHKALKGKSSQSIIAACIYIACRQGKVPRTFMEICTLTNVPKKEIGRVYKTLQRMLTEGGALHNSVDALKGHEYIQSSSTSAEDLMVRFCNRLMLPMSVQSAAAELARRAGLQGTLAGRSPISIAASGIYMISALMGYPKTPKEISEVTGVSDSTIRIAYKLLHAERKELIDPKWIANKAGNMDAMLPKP
Experiment: native gel or EMSA; TBP and TFIIB (20 ng each) on 32P-labelled Ad-MLP TATA box probe; 20 mM HEPES pH 7.9, 50 mM KCl, 5 mM MgCl2, 5% glycerol; 15 min at 30 °C; 5% polyacrylamide gel at 4 °C
Conditions: both partners purified

B1: Schizosaccharomyces pombe TATA-binding protein (natural protein, S. pombe, UniProt P17871 1-231, looked up)
chain: MDFALPTTASQASAFMNNSSLTFPVLPNANNEATNETADSGDAEVSKNEGVSGIVPTLQNIVATVNLDCRLDLKTIALHARNAEYNPKRFAAVIMRIREPKSTALIFASGKMVVLGGKSEDDSKLASRKYARIIQKLGFNAKFTDFKIQNIVGSCDVKFPIRLEGLAYSHGTFSSYEPELFPGLIYRMVKPKVVLLIFVSGKIVLTGAKVREEIYQAFEAIYPVLSEFRKH
notes: also called TBP; fission yeast TBP
B1: binds.
